These results are taken from publication PMC10786891, “Massively parallel profiling of RNA-targeting CRISPR-Cas13d”.

The chains are these.
T1: EsCas13d, nuclease-dead (Eubacterium siraeum, UniProt B0MS50, R295A;H300A;R849A;H854A)
T1 sequence: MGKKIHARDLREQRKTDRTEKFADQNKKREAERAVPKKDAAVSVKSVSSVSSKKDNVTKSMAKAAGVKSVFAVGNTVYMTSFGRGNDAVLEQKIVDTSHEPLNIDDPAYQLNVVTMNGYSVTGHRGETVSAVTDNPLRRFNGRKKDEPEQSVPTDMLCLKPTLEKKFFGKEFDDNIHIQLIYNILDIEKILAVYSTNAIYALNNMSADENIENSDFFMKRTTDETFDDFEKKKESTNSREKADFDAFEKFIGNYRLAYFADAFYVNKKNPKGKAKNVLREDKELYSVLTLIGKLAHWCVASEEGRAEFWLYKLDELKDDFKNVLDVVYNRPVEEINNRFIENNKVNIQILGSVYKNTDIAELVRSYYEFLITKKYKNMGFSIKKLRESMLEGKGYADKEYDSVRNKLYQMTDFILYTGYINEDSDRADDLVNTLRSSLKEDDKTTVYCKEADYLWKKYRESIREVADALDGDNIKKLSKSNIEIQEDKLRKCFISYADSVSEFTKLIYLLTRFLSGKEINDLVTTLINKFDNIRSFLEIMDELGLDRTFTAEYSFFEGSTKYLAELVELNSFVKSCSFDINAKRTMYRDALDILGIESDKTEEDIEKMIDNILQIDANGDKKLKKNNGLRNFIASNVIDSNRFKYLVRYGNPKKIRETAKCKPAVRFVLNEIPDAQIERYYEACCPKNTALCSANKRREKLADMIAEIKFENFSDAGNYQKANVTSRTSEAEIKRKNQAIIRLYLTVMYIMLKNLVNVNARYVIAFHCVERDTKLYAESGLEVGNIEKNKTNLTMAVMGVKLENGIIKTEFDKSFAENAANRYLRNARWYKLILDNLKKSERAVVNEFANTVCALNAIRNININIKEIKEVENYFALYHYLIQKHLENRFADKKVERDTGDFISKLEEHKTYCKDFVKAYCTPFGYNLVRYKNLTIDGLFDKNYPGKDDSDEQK

B1: target 1 insG 3' of 8,insC 3' of 5 (mixed)
RNA 1: CACCCGUGCAAAAAUGCAGGGGUCUAAAACUGAGCGGAUAACCUCUCUAUGG
RNA 2: GGGAAUGGAUCCACAUCUACGAAUUCGUACCAUAGAGAGGUUAUGCCGCCUCACCGAGAUCGGAAGAGCACACGU
B2: target 1 A16G,A18U (mixed)
RNA 1: B1 RNA 1
RNA 2: GGGAAUGGAUCCACAUCUACGAAUUCGUACCAUUGGGAGGUUAUCCGCUCACCGAGAUCGGAAGAGCACACGU
B3: target 1 A9C,A20U (mixed)
RNA 1: B1 RNA 1
RNA 2: B2 RNA 2 with A32U, U34A, G36A, A43C
B4: target 1 C4G,U10G (mixed)
RNA 1: B1 RNA 1
RNA 2: B2 RNA 2 with U34A, G36A, U42G, C48G
B5: target 1 insU 3' of 13,insA 3' of 5 (mixed)
RNA 1: B1 RNA 1
RNA 2: B1 RNA 2 with G40U, U41G, A43U, U44A, G45U, C49A
B6: target 1 C7G,G12U (mixed)
RNA 1: B1 RNA 1
RNA 2: B2 RNA 2 with U34A, G36A, G40U, C45G
B7: target 1 insA 3' of 8,insC 3' of 5 (mixed)
RNA 1: B1 RNA 1
RNA 2: B1 RNA 2 with G45A
B8: target 1 G17U,A18U (mixed)
RNA 1: B1 RNA 1
RNA 2: B2 RNA 2 with G35U, G36A
B9: target 1 U3C,A9G (mixed)
RNA 1: B1 RNA 1
RNA 2: B2 RNA 2 with U34A, G36A, A43G, U49C
B10: target 1 complement block 4-14 (mixed)
RNA 1: B1 RNA 1
RNA 2: GGGAAUGGAUCCACAUCUACGAAUUCGUACCAUAGAGUCCAAUAGGCGUCACCGAGAUCGGAAGAGCACACGU
B11: target 1 C2A,A20U (mixed)
RNA 1: B1 RNA 1
RNA 2: B2 RNA 2 with A32U, U34A, G36A, C50A
B12: target 1 C7G,U11C (mixed)
RNA 1: B1 RNA 1
RNA 2: B2 RNA 2 with U34A, G36A, U41C, C45G
B13: target 1 U8A,G12C (mixed)
RNA 1: B1 RNA 1
RNA 2: B2 RNA 2 with U34A, G36A, G40C, U44A
B14: target 1 C4U,C6A (mixed)
RNA 1: B1 RNA 1
RNA 2: B2 RNA 2 with U34A, G36A, C46A, C48U
B15: target 1 U10A,U19C (mixed)
RNA 1: B1 RNA 1
RNA 2: B2 RNA 2 with U33C, U34A, G36A, U42A
B16: target 1 insU 3' of 5,insA 3' of 5 (mixed)
RNA 1: B1 RNA 1
RNA 2: B1 RNA 2 with G45C, C47G, G48U, C49A
B17: target 1 insA 3' of 4,insG 3' of 3 (mixed)
RNA 1: B1 RNA 1
RNA 2: B1 RNA 2 with G45C, C47G, G48C, C49A, C50U, U51G
B18: target 1 insG 3' of 22,insC 3' of 20 (mixed)
RNA 1: B1 RNA 1
RNA 2: GGGAAUGGAUCCACAUCUACGAAUUCGUACGCACUAGAGAGGUUAUCCGCUCACCGAGAUCGGAAGAGCACACGU
B19: target 1 insC 3' of 18,insG 3' of 6 (mixed)
RNA 1: B1 RNA 1
RNA 2: GGGAAUGGAUCCACAUCUACGAAUUCGUACCAUACGAGAGGUUAUCCGGCUCACCGAGAUCGGAAGAGCACACGU
B20: target 1 insG 3' of 22,insU 3' of 18 (mixed)
RNA 1: B1 RNA 1
RNA 2: B18 RNA 2 with C34U, U35A, A36U
B21: target 1 insA 3' of 21,insA 3' of 17 (mixed)
RNA 1: B1 RNA 1
RNA 2: B18 RNA 2 with G31C, C32A, C34U, U35A, A36G, G37A
B22: target 1 insU 3' of 14,insG 3' of 9 (mixed)
RNA 1: B1 RNA 1
RNA 2: B1 RNA 2 with G39U, U41G, A43U, U44A, C46U, G48C, C49G
B23: target 1 U3A,A9U (mixed)
RNA 1: B1 RNA 1
RNA 2: B2 RNA 2 with U34A, G36A, A43U, U49A
B24: target 1 C7G,U19G (mixed)
RNA 1: B1 RNA 1
RNA 2: B2 RNA 2 with U33G, U34A, G36A, C45G
B25: target 1 insU 3' of 17,insU 3' of 2 (mixed)
RNA 1: B1 RNA 1
RNA 2: B19 RNA 2 with C35G, G36U, G49C, C50U, U51C, C52U
B26: target 1 insA 3' of 22,insA 3' of 15 (mixed)
RNA 1: B1 RNA 1
RNA 2: B18 RNA 2 with G31A, C34U, U35A, A36G, G37A, A38G, G39A
B27: target 1 insU 3' of 7,insU 3' of 1 (mixed)
RNA 1: B1 RNA 1
RNA 2: B1 RNA 2 with G45C, C46U, C50U, U51C, C52A, A53U
B28: target 1 G13C,A14G (mixed)
RNA 1: B1 RNA 1
RNA 2: B2 RNA 2 with U34A, G36A, A38G, G39C
B29: target 1 U3C,U11C (mixed)
RNA 1: B1 RNA 1
RNA 2: B2 RNA 2 with U34A, G36A, U41C, U49C
B30: target 1 del3,del13 (mixed)
RNA 1: B1 RNA 1
RNA 2: GGGAAUGGAUCCACAUCUACGAAUUCGUACCAUAGAGAGUUAUCCGCCACCGAGAUCGGAAGAGCACACGU
B31: target 1 G12U,G13C (mixed)
RNA 1: B1 RNA 1
RNA 2: B2 RNA 2 with U34A, G36A, G39C, G40U
B32: target 1 insG 3' of 10,insG 3' of 7 (mixed)
RNA 1: B1 RNA 1
RNA 2: B1 RNA 2 with A43G, U44A, G45U, C47G, G48C, C49G

Changes are numbered by the printed parent chain. Names may count otherwise.

The series addresses T1, EsCas13d, nuclease-dead. The experiment in a line: crRNA (strand 1, pre-loaded); Mg2+; 40 mM Tris-HCl pH 7.5, 150 mM NaCl, 6 mM MgCl2, 1 mM DTT, 0.1% Tween-20, 0.2 mg/ml BSA; 25 C; 10 min per concentration, then washed. The settings on record: tags: His6-TwinStrep-SUMO cleaved; N-terminal SNAP kept (SNAP-Surface 488); label: 3' end held by stalled T7 RNA polymerase.
For B1, the Kd was 10.2 ± 0.4 nM. In turn, B2 came in with a Kd of 86 ± 13 nM. The result for B3 reads 80 ± 40 nM.

In the case of B4, the Kd was 13.6 ± 0.5 nM. Compared with the last molecule, the Kd is about 5.9-fold lower. The result for B5 reads 15.7 ± 2.7 nM; that for B6, 14.3 ± 1.1 nM; that for B7, 9.4 ± 0.6 nM. The result for B8 reads 29.8 ± 2.8 nM. Consider B9, for which the Kd was 30.5 ± 3.2 nM.

With B10, the affinity, expressed as Kd, was 63 ± 31 nM. The result for B11 reads 30.1 ± 1.5 nM; that for B12, 14.6 ± 0.6 nM; that for B13, 16.5 ± 1.2 nM.

B14: the affinity, expressed as Kd, was 7.52 ± 0.33 nM. The figure for B15 is 35 ± 4 nM; for B16 it is 13.9 ± 0.6 nM; for B17 it is 6.5 ± 0.4 nM.

As to B18, the Kd was 8.4 ± 0.7 nM.

B19 came in with a dissociation constant (Kd) of 58 ± 10 nM. The figure for B20 is 74 ± 18 nM. The result for B21 reads 41 ± 5 nM; that for B22, 28.2 ± 2.9 nM. The figure for B23 is 10.8 ± 0.9 nM; for B24 it is 34 ± 10 nM; for B25 it is 15.1 ± 2.2 nM. In turn, B26 came in with a Kd of 7.9 ± 0.4 nM. The figure for B27 is 18.4 ± 0.9 nM; for B28 it is 31 ± 5 nM. B29 showed a Kd of 51 ± 8 nM. Compared with the last molecule, the Kd is about 1.6-fold higher. The result for B30 reads 7.9 ± 0.4 nM; that for B31, 17.5 ± 1.3 nM. The figure for B32 is 12.5 ± 0.6 nM.

A word on the Kd: it is a measure of binding affinity in units of concentration. A low value points to higher affinity.
